The test system of data set [1] is T1, MPH (2′)-II from B. paraconglomeratum (mphE).
T1 construct: codon-optimised synthetic gene in pET28b (NdeI/HindIII), E. coli BL21(DE3); IMAC and gel filtration
Description: pyruvate kinase/lactate dehydrogenase coupled assay, NADH absorbance at […] nm. The data set is classed as biochemical, Brachybacterium paraconglomeratum.

The target in data set [2] is T1, MPH (2′)-II from B. paraconglomeratum (mphE). The description is as above. The class given is biochemical, Brachybacterium paraconglomeratum. Particulars: substrate inhibition constant (substrate-inhibition fit); GTP 200 µM.
Data set [3] deals with CC[C@H]1OC(=O)[C@H](C)[C@@H](O[C@H]2C[C@@](C)(OC)[C@@H](O)[C@H](C)O2)[C@H](C)[C@@H](O[C@@H]2O[C@H](C)C[C@H](N(C)C)[C@H]2O)[C@](C)(O)C[C@@H](C)CN(C)[C@H](C)[C@@H](O)[C@]1(C)O. Description: purified protein. The data set is classed as biochemical, Brachybacterium faecium. Particulars: GTP 200 µM.
Data set [4] deals with CC[C@H]1OC(=O)[C@H](C)C(=O)[C@H](C)[C@@H](O[C@@H]2O[C@H](C)C[C@H](N(C)C)[C@H]2O)[C@](C)(OC)C[C@@H](C)C(=O)[C@H](C)[C@H]2N(CCCCn3cnc(-c4cccnc4)c3)C(=O)O[C@]12C. Description: purified protein. The data set is classed as biochemical, Brachybacterium faecium. The settings on record: GTP 200 µM.
Data set [5] relates to CC[C@H]1OC(=O)[C@H](C)[C@@H](O[C@H]2C[C@@](C)(OC)[C@@H](O)[C@H](C)O2)[C@H](C)[C@@H](O[C@@H]2O[C@H](C)C[C@H](N(C)C)[C@H]2O)[C@](C)(OC)C[C@@H](C)C(=O)[C@H](C)[C@@H](O)[C@]1(C)O. Description: purified protein. The data set is classed as biochemical, Brachybacterium faecium. Particulars: GTP 200 µM.
Data set [6] deals with CC[C@H]1OC(=O)[C@H](C)[C@@H](O[C@H]2C[C@@](C)(OC)[C@@H](O)[C@H](C)O2)[C@H](C)[C@@H](O[C@@H]2O[C@H](C)C[C@H](N(C)C)[C@H]2O)[C@](C)(O)C[C@@H](C)/C(=N\OCOCCOC)[C@H](C)[C@@H](O)[C@]1(C)O. Description: purified protein. The class given is biochemical, Brachybacterium faecium. Particulars: GTP 200 µM.
In data set [7] the test system is Nc1nc2c(ncn2[C@@H]2O[C@H](COP(=O)(O)OP(=O)(O)OP(=O)(O)O)[C@@H](O)[C@H]2O)c(=O)[nH]1. Description: purified protein. The class given is biochemical, Brachybacterium faecium. The settings on record: erythromycin 400 µM (table note; methods say 200 µM macrolide).
Data set [8] relates to CC[C@H]1OC(=O)[C@H](C)[C@@H](O[C@H]2C[C@@](C)(OC)[C@@H](O)[C@H](C)O2)[C@H](C)[C@@H](O[C@@H]2O[C@H](C)C[C@H](N(C)C)[C@H]2O)[C@](C)(O)C[C@@H](C)C(=O)[C@H](C)[C@@H](O)[C@]1(C)O. Description: purified protein. The data set is classed as biochemical, Brachybacterium faecium. Particulars: GTP 200 µM.

Usually Km stands for the concentration of substrate that gives half-maximal velocity. Take `CC[C@H]1OC(=O)[C@H](C)[C@@H](O[C@H]2C[C@@](C)(OC)[C@@H](O)[C@H](C)O2)[C@H](C)[C@@H](O[C@@H]2O[C@H](C)C[C@H](N(C)C)[C@H]2O)[C@](C)(O)C[C@@H](C)C(=O)[C@H](C)[C@@H](O)[C@]1(C)O` [Erythromycin]: the Km in data set [1] (GTP 200 µM) came to 43.8 ± 11.3 µM.
With `CC[C@H]1OC(=O)[C@H](C)C(=O)[C@H](C)[C@@H](O[C@@H]2O[C@H](C)C[C@H](N(C)C)[C@H]2O)[C@](C)(OC)C[C@@H](C)C(=O)[C@H](C)[C@H]2N(CCCCn3cnc(-c4cccnc4)c3)C(=O)O[C@]12C` [Telithromycin], the “Ki” value in data set [2] worked out at 600 ± 285 µM. Further, the Km in data set [1] (GTP 200 µM, substrate-inhibition fit) amounted to 12.2 ± 5 µM.
Take `CC[C@H]1OC(=O)[C@H](C)[C@@H](O[C@H]2C[C@@](C)(OC)[C@@H](O)[C@H](C)O2)[C@H](C)[C@@H](O[C@@H]2O[C@H](C)C[C@H](N(C)C)[C@H]2O)[C@](C)(OC)C[C@@H](C)C(=O)[C@H](C)[C@@H](O)[C@]1(C)O` [Clarithromycin]: the Km in data set [1] (GTP 200 µM) was 21.9 ± 5.45 µM.
Take `CC[C@H]1OC(=O)[C@H](C)[C@@H](O[C@H]2C[C@@](C)(OC)[C@@H](O)[C@H](C)O2)[C@H](C)[C@@H](O[C@@H]2O[C@H](C)C[C@H](N(C)C)[C@H]2O)[C@](C)(O)C[C@@H](C)/C(=N\OCOCCOC)[C@H](C)[C@@H](O)[C@]1(C)O` [Roxithromycin]: the Km in data set [1] (GTP 200 µM) was found to be 59 ± 10.9 µM.
`CC[C@H]1OC(=O)[C@H](C)[C@@H](O[C@H]2C[C@@](C)(OC)[C@@H](O)[C@H](C)O2)[C@H](C)[C@@H](O[C@@H]2O[C@H](C)C[C@H](N(C)C)[C@H]2O)[C@](C)(O)C[C@@H](C)CN(C)[C@H](C)[C@@H](O)[C@]1(C)O` [Azithromycin]: in data set [1] (GTP 200 µM), the Km is 54 ± 7.59 µM.
For orientation: kcat means the number of substrate molecules converted per active site and unit of time at saturation. The kcat/Km is the second-order rate constant that governs catalysis at low substrate concentration. On to “MPH (2′)-II from B. faecium DSM 4810 (Brachybacterium faecium DSM 4810)”, for which the Km is 60.6 ± 8.86 µM in data set [3]; 23.9 ± 4.22 µM in data set [4]; 42.0 ± 6.26 µM in data set [5]; 19.3 ± 2.60 µM in data set [6]; 16.0 ± 1.3 µM in data set [7]; 38.2 ± 6.24 µM in data set [8]. The kcat in data set [3] came to 0.312 s⁻¹; in data set [4], 0.168 s⁻¹; in data set [5], 0.286 s⁻¹; in data set [6], 0.262 s⁻¹; in data set [7] it was 0.203 s⁻¹; in data set [8] it was 0.192 s⁻¹. Also, the kcat/Km stood at 5180 M⁻¹ s⁻¹ in data set [3]; 7050 M⁻¹ s⁻¹ in data set [4]; 6810 M⁻¹ s⁻¹ in data set [5]; 13600 M⁻¹ s⁻¹ in data set [6]; 12700 M⁻¹ s⁻¹ in data set [7]; 5030 M⁻¹ s⁻¹ in data set [8].
Consider `Nc1nc2c(ncn2[C@@H]2O[C@H](COP(=O)(O)OP(=O)(O)OP(=O)(O)O)[C@@H](O)[C@H]2O)c(=O)[nH]1` [GTP], for which, in data set [1] (erythromycin 400 µM (table note; methods say 200 µM macrolide)), the Km is 10.2 ± 0.53 µM.

For the origin of these results see article PMC3324550, “Antibiotic Resistance Is Prevalent in an Isolated Cave Microbiome” (PLoS ONE, 2012).
